Experiments:
[1] = tested on: R1-YRKH-R2 (Bz-PGGYRKHAG-OH) / H-RKHAK(DNP)-OH; experiment: Zinc dependence of the transamidation reaction, A2C8 and K7F11, YRKH; format: biochemical; conditions: 100 μM acyl donor, 200 μM acyl acceptor
Experimental: Model transamidation reactions were performed in a solution containing 15 to 250 μM acyl donor, 2 eq. of the corresponding acyl acceptor, varying concentrations of trypsin variant, 100 mM HEPES/NaOH pH 7.8, ±0.1 mM ZnC12, 100 mM NaCl, 10 mM CaCl2) at 30° C. Acyl donor and acyl acceptor had the same amino acids in P1′-P3′ position, e.g. Bz-[…]+H-RAHAK-OH or Bz-[…]+H-RKKAK-OH. Variations are indicated. The acyl acceptor could be equipped with a 2,4-Dinitrophenyl group (DNP) at the side chain of the terminal lysine, e.g. H-RAHAK(DNP)-OH or H-RKKAK(DNP)-OH. The reactions were started by the addition of enzyme. To record the time course of product formation and/or for kinetic evaluation of the reaction several aliquots of the reaction mixture were quenched with 25% (v/v) acetic acid at distinct time points within up to 4 hours. The composition of the reaction mixture was analyzed by UPCL with method I or II, depending on the absence (method 1) or presence (method II) of a 2,4-dinitrophenyl group within the acyl acceptor (see example 1). Measurements were performed as duplicates and errors were less than 5%.

[2] = target: T1, Bz-PGGYRAHAG-OH (acyl donor) (Rattus norvegicus, UniProt P00763, A221T/D194K/E154Y/G219Q/H46F/K102D/K66E/L104F/N146E/Q197A/R101E/S195V/S215G/Y45H/Y65H); experiment: Turnover rate of the hydrolysis reaction in the absence of a nucleophilic peptide; format: biochemical; conditions: Zinc ions: no; varying Bz-PGGYRAHAG-OH, 2 μM trypsin variant, no nucleophilic peptide
T1 construct: made in house; host or cells: Pichia pastoris X-33
T1 sequence (P00763 24-246 Y45H/H46F/Y65H/K66E/R101E/K102D/L104F/N146E/E154Y/D194K/S195V/Q197A/S215G/G219Q/A221T): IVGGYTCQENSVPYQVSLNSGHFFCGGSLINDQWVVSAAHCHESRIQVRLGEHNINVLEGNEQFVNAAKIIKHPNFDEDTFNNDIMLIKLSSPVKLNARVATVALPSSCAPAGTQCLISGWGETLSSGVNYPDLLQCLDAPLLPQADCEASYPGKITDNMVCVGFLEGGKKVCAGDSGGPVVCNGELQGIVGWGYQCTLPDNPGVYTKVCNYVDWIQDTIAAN
Experimental: (§1) Hydrolysis reactions were performed in a solution containing varying concentrations of the acyl donor Bz-[…]-OH (0-5000 μM for Trypsiligase II, 0-1500 μM for variant A2C8), 2 μM trypsin variant, 100 mM HEPES/NaOH pH 7.8, 100 mM NaCl, 10 mM CaCl2 at 30° C. In case of Trypsiligase II the reactions were performed in the presence of 100 μM ZnCl2. The reaction was started by the addition of enzyme. For kinetic evaluation of the reaction several aliquots of the reaction mixture were quenched with 25% (v/v) acetic acid at distinct time points within 30 minutes. The composition of the reaction mixture was analyzed by UPCL using method I (see example 1). UV absorption of the N-terminal benzoyl-group (Bz-), which is present in the acyl donor as well as in the hydrolysis product, was detected at 254 nm. To determine the turnover rate of the hydrolysis reaction (kcat,HL) the initial rates for the hydrolysis reaction were plotted against the corresponding acyl donor concentration and fitted to the Michaelis Menten equation. Measurements were performed as duplicates and errors were less than 5%.

[3] = tested on: Bz PGGXaaXaaXaaHAG-OH / H-XaaXaaXaaAK(DNP)-OH (recognition sequences YRRH, YMKH, RMKH); experiment: Time course of transamidation by A2C8_H39Y/H59Y/E60K/K189D and wild-type trypsin (FIG. 5); format: biochemical; conditions: comparison value for A2C8
Experimental: FIG. 5: Time course of the product formation for a transamidation reaction catalyzed by the variant A2C8_H39Y/H59Y/E60K/K189D as well as the wild-type Trypsin in correlation to various peptide substrates. Reaction conditions: 100 μM acyl donor (Bz PGGXaaXaaXaaHAG-OH), 200 μM acyl acceptor (H-XaaXaaXaaAK(DNP)-OH), 10 μM trypsin variant A2C8_H39Y/H59Y/E60K/K189D or 2.5 nM anionic rat trypsin II, 100 mM HEPES/NaOH pH 7.8, 0.1 mM ZnCl2, 100 mM NaCl, 10 mM CaCl2, T=30° C. UPLC analysis: Waters Acquity Ultra Performance LC, C18-column, gradient 5-60% acetonitrile, 5 min, detection at 360 nm.
The three substrates with the highest apparent turnover rate for the aminolysis reaction were then used for investigating the synthesis behavior of variant A2C8_H39Y/H59Y/E60K/K189D. In FIG. 5 the time course of product formation for a transamidation reaction catalyzed by variant A2C8_H39Y/H59Y/E60K/K189D with various peptide substrates is illustrated.

H-RAHAK(DNP)-OH = target: T2, H-RAHAK(DNP)-OH
T2 chain: RAHAK

[4] = target: T3, Bz-PGGYRAHAG-OH (acyl donor) (Rattus norvegicus, UniProt P00763, D194K/K66E/Y45H/Y65H); experiment: Turnover rate of the hydrolysis reaction in the absence of a nucleophilic peptide; format: biochemical; conditions: Zinc ions (100 μM): yes; varying Bz-PGGYRAHAG-OH, 2 μM trypsin variant, no nucleophilic peptide
T3 construct: made in house; host or cells: Pichia pastoris X-33
T3 sequence (P00763 24-246 Y45H/Y65H/K66E/D194K): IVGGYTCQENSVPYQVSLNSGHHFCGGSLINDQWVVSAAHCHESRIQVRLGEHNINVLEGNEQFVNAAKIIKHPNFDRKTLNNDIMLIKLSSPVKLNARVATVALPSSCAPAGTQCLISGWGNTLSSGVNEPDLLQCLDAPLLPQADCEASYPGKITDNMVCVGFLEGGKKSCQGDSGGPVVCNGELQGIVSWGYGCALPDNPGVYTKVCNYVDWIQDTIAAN
Experimental: as §1

B1: A2C8: Trypsiligase II + H40F, A55A, R96E, K97D, L99F, N143E, E151Y, S190V, Q192A, S214G, G219Q, A221T (protein)
chain: IVGGYTCQENSVPYQVSLNSGHFFCGGSLINDQWVVSAAHCHESRIQVRLGEHNINVLEGNEQFVNAAKIIKHPNFDEDTFNNDIMLIKLSSPVKLNARVATVALPSSCAPAGTQCLISGWGETLSSGVNYPDLLQCLDAPLLPQADCEASYPGKITDNMVCVGFLEGGKKVCAGDSGGPVVCNGELQGIVGWGYQCTLPDNPGVYTKVCNYVDWIQDTIAAN
kcat, AL^app + Zn^2+ (mkat/mol) ([1]; 0.1 mM ZnCl2): 8.42 mkat/mol | product yield + Zn^2+ (%) ([1]; 0.1 mM ZnCl2): 55.0% | kcat, AL^app − Zn^2+ (mkat/mol) ([1]; absence of zinc ions): 16.92 mkat/mol | product yield − Zn^2+ (%) ([1]; absence of zinc ions): 57.6% | kcat, HL (mkat/mol) [2]: 86.6 mkat/mol | product yield at comparable conditions [3]: 59%

B2: Trypsiligase II (trypsin variant Y39H/Y59H/K60E/D189K) (protein)
chain: IVGGYTCQENSVPYQVSLNSGHHFCGGSLINDQWVVSAAHCHESRIQVRLGEHNINVLEGNEQFVNAAKIIKHPNFDRKTLNNDIMLIKLSSPVKLNARVATVALPSSCAPAGTQCLISGWGNTLSSGVNEPDLLQCLDAPLLPQADCEASYPGKITDNMVCVGFLEGGKKSCQGDSGGPVVCNGELQGIVSWGYGCALPDNPGVYTKVCNYVDWIQDTIAAN
KM, acyl acceptor (µM); zinc ions (100 µM): no; transamidation with 250 µM Bz-PGGYRAHAG-OH as acyl donor (H-RAHAK(DNP)-OH): 1630 µM | KM, acyl acceptor (µM); zinc ions (100 µM): yes; transamidation with 250 µM Bz-PGGYRAHAG-OH as acyl donor (H-RAHAK(DNP)-OH): 144 µM | fold increase of KM of the nucleophilic peptide without zinc ions against with zinc ions (H-RAHAK(DNP)-OH): increased by a factor of 11 to 1630 µM | kcat, HL (mkat/mol) [4]: 602.1 mkat/mol

— US20220235344A1, “TRYPSIN VARIANTS WITH IMPROVED ENZYMATIC PROPERTIES” (BIOPHARMA TRANSLATIONSINSTITUT DESSAU FORSCHUNGS GMBH, priority 2018, published 2022)
